From patent publication US20250152729A1 (CANCER RESEARCH TECHNOLOGY, published 2025)
Read-outs that look alike come from different tables or passages of the source.

Assays:
[1] = molecular target: T1, human SEMA4A expressed on cells (UniProt ID Q9H3S1, isoform 1) (human, UniProt Q9H3S1 33-761); experiment: cell-based or functional assay
T1 sequence: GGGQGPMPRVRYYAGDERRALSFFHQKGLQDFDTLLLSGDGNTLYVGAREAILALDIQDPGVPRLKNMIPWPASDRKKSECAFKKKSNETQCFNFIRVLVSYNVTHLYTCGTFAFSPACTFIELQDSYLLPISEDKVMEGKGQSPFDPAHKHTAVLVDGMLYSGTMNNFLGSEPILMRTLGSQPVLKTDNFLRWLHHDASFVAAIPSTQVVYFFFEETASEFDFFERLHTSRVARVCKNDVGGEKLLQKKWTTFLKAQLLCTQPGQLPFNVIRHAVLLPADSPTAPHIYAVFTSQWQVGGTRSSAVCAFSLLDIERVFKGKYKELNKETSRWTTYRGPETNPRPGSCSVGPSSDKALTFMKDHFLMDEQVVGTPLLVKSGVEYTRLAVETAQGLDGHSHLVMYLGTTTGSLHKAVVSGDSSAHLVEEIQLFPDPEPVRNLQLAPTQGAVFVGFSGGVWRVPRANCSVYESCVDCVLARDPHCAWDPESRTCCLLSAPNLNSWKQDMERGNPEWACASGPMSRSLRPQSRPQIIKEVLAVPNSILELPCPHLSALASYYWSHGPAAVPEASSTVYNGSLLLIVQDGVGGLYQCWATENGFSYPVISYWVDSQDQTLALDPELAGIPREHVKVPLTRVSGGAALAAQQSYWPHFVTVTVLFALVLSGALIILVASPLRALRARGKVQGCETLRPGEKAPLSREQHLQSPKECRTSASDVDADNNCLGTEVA

[2] = molecular target: T1, human SEMA4A expressed on cells …; experiment: flow cytometry on NCI-H929 cells endogenously expressing human SEMA4A, 10-point titration
Description: Binding of SEMA4A specific IgGs to membrane-bound SEMA4A was evaluated using flow cytometry in NCI-H929 cells that endogenously express human SEMA4A. Binding assays were performed by incubating the anti-SEMA4A antibodies with 200,000 cells for 3 hours at 4° C. followed by two washes with PBS, 1% (w/v) BSA (FACS buffer). A range of antibody concentrations were evaluated using a 10-point, 3-fold dilution series. Cells were then incubated with Alexa Fluor 647 conjugated AffiniPure Fab Fragment Goat Anti-Human IgG (H+L) (Jackson Immunoresearch Europe Limited, Ely, Cambridgeshire) diluted 1:100, at 4° C. for 1 hour, followed by two washes in FACS buffer. Cells were then stained with LIVE/DEAD™ Fixable Violet Dead Cell Stain (Life Technologies, L34955) for 30 minutes at 4° C., followed by two washes in FACS buffer. Cells were then fixed using BD Cell Fix (BD Biosciences, 340181). Fluorescence of live, single cells was measured using a Novocyte™ 3000 flow cytometer and Novoexpress software (Acea Biosciences, Inc, San Diego, CA). Data were analysed using FlowJo software (FlowJo, LLC, Ashland, OR). Mean fluorescence intensity values were plotted against antibody conjugate concentrations and KD values determined using Prism software (GraphPad Software Inc, La Jolla, CA).

[3] = molecular target: T2, human SEMA4B expressed on expi293 cells (human, UniProt Q9NPR2 44-837); experiment: Mirrorball direct binding, dilution series on expi293 cells transiently transfected with human SEMA4B, anti-human Alexa Fluor 647
T2 construct: whole, on cells
T2 sequence (looked up): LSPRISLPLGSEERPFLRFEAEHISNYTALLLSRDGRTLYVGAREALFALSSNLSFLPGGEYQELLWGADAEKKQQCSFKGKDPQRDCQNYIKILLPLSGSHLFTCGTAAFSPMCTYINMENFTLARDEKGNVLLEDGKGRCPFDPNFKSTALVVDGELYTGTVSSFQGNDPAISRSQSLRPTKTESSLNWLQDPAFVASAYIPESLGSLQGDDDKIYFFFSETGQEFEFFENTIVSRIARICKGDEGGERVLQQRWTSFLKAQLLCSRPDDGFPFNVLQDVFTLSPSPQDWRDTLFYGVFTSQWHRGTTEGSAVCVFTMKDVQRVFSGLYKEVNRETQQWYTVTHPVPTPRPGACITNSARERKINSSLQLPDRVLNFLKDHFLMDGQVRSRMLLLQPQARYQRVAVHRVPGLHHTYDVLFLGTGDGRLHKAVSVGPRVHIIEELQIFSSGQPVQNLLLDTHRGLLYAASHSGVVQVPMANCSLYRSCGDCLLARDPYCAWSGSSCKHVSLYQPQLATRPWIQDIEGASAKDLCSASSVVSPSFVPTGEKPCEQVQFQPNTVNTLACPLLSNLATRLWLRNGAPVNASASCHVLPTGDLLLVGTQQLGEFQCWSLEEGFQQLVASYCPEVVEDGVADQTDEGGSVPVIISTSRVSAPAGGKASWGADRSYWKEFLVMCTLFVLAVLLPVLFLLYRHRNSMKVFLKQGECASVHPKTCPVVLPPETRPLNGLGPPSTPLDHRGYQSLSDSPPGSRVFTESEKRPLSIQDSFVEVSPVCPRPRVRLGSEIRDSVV
Description: To determine the specificity profile of each purified human Alya IgG1 conjugated to McMMAF, a dilution series was tested for binding to human SEMA4A, human SEMA4B and mock transfected cells (transient transfections set up in expi 293 cells.) The three assays employed methods described in section 2.3, using the appropriate cells and substituting the un-purified scFv periplasmic preparation with the human Alya IgG1 conjugated to McMMAF. Data was analysed as Count x median mean intensity (x FLU).

[4] = molecular target: T1, human SEMA4A expressed on cells …; experiment: cell-based or functional assay; remark: listed apart in the source
[5] = molecular target: T1, human SEMA4A expressed on cells …; experiment: cell-based or functional assay; remark: listed apart in the source

B1: C0120906 human Alya IgG1 conjugated to McMMAF (antibody, V domains shown)
VH: EVQLVQSGPEVKKPGASVKISCKASGYKLNDPGVHGVSWVRQAPGQGLEWMGWISTLNGDTRYAQKFQGRVTMATDSSTSTIYMDLRSLKSDDTALYYCARDDYTAIFDFWGRGTLVTVSS
VL: QSVLTQPPSVSVAPGQTASITCGGSNIGSQSVHWYQQKPGQAPVLVVYDDSDRPSGIPERFSGSKSGNTASLILSRVEAGDEADYYCQVWDSSTDHHVFGTGTKVTVL
modifications: McMMAF on the engineered cysteines 239iCys and S442C (EU numbering) of the heavy constant region
notes: Antibody-drug conjugate; human IgG1 Alya constant; also called C0120906-McMMAF
EC50 (nM), Fab-pHast internalisation into NCI-H929 [1]: 4.1 nM | Fold-Change at 6 hours (10 nM), Fab-pHast internalisation [1]: 116 fold | Kd [2]: 9.67 nM | binding result [3]: no binding (tested: log (M) -8 (1e-8 M)) | Average MM1.S IC50 [pM], cell kill [4]: 4.7 pM | Average NCI-H929 IC50 [pM], cell kill [4]: 3 pM

B2: C0120917 human Alya IgG1 conjugated to McMMAF (antibody, V domains shown)
VH: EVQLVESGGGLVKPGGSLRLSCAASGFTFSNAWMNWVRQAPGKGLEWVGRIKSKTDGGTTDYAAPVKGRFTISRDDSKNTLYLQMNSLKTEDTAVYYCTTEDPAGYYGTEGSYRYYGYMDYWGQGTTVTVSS
VL: NFMLTQPHSVSESPGKTVTISCTASGDTLDNKYVNWYQVRPGSAPATLIFHYEERDSGVPDRFSGSFDASSNSASLTISGLQTADEADYFCQSYDSKRDNLVVFGGGTKVTVL
modifications: McMMAF on the engineered cysteines 239iCys and S442C (EU numbering) of the heavy constant region
notes: Antibody-drug conjugate; human IgG1 Alya constant; also called C0120917-McMMAF
EC50 (nM), Fab-pHast internalisation into NCI-H929 [1]: 8.29 nM | Fold-Change at 6 hours (10 nM), Fab-pHast internalisation [1]: 53 fold | Kd [2]: 40.5 nM | binding result [3]: no binding (tested: log (M) -8 (1e-8 M)) | Average MM1.S IC50 [pM], cell kill [4]: 10.9 pM | Average NCI-H929 IC50 [pM], cell kill [4]: 18.1 pM

B3: C0120918 human Alya IgG1 conjugated to McMMAF (antibody, V domains shown)
VH: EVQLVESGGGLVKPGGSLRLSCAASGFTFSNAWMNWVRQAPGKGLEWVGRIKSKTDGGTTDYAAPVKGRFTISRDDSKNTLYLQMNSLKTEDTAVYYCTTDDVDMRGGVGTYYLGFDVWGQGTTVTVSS
VL: SYELTQPPSVSVSPGQTARITCSGDALPKQYAYWYQQKPGQAPVLVIYKDSERPSGIPERFSGSSSGTTVTLTISGVQAEDEADYYCQSADSSGTWVFGGGTKVTVL
modifications: McMMAF on the engineered cysteines 239iCys and S442C (EU numbering) of the heavy constant region
notes: Antibody-drug conjugate; human IgG1 Alya constant; also called C0120918-McMMAF
EC50 (nM), Fab-pHast internalisation into NCI-H929 [1]: 3.62 nM | Fold-Change at 6 hours (10 nM), Fab-pHast internalisation [1]: 79 fold | Kd [2]: 1.6 nM | binding result [3]: no binding (tested: log (M) -8 (1e-8 M)) | Average MM1.S IC50 [pM], cell kill [4]: 13.2 pM | Average NCI-H929 IC50 [pM], cell kill [4]: 55.8 pM

B4: 5Hg1-5Lg1 human Alya IgG1 conjugated to McMMAF (antibody, V domains shown)
VH: QVQLVQSGAEVKKPGASVKVSCKASGYTFTDYWMHWVRQAPGQGLEWMGAIDTSDSYTSYNQKFKGRVTMTRDTSTSTVYMELSSLRSEDTAVYYCARDYGNFYYYAMDYWGQGTLVTVSS
VL: QAVVTQEPSLTVSPGGTVTLTCRSSTGAVTTSNYANWFQQKPGQAPRTLIYGTNNRAPWTPARFSGSLLGGKAALTLSGAQPEDEAEYYCALWYSNHWVFGGGTKLTVL
modifications: McMMAF on the engineered cysteines 239iCys and S442C (EU numbering) of the heavy constant region
notes: Antibody-drug conjugate; human IgG1 Alya constant; also called 5Hg1/5Lg1-McMMAF
EC50 (nM), Fab-pHast internalisation into NCI-H929 [1]: 0.54 nM | Fold-Change at 6 hours (10 nM), Fab-pHast internalisation [1]: 121 fold | Average KARPAS 25 IC50 [pM], cell kill [5]: 625 pM | Average MM1.S IC50 [pM], cell kill [5]: 35.8 pM | Average NCI-H929 IC50 [pM], cell kill [5]: 100 pM | Kd [2]: 1.46 nM | binding result [3]: no binding (tested: log (M) -8 (1e-8 M))
